Source: publication PMC9239148 (2022)

Experiments:
Experiment in all cases: SPR
[1] = target: T1, Recombinant SERPINE1 protein (plasminogen activator inhibitor 1) (human, UniProt P05121 24-402)
[2] = target: T1, Recombinant SERPINE1 protein …; remark: listed apart in the source
[3] = target: T2, Recombinant SERPINA1 protein (alpha-1 antitrypsin) (human, UniProt P01009 25-418)
[4] = target: T3, Recombinant SERPINC1 protein (antithrombin III) (human, UniProt P01008 33-464)
[5] = target: T2, Recombinant SERPINA1 protein (alpha-1 …); remark: listed apart in the source
[6] = target: T3, Recombinant SERPINC1 protein …; remark: listed apart in the source

T1 sequence (P05121 24-402): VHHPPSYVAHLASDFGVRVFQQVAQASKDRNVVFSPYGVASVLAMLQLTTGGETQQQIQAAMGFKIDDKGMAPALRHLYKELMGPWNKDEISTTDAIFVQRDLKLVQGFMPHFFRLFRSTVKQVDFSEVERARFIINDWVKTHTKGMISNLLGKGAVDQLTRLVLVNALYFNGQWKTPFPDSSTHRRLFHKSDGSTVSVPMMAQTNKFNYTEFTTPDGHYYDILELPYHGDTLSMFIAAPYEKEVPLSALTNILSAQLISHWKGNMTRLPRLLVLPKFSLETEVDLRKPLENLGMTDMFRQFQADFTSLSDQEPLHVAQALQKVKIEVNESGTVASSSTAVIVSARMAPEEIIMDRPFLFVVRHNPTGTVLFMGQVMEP
T3 sequence (P01008 33-464): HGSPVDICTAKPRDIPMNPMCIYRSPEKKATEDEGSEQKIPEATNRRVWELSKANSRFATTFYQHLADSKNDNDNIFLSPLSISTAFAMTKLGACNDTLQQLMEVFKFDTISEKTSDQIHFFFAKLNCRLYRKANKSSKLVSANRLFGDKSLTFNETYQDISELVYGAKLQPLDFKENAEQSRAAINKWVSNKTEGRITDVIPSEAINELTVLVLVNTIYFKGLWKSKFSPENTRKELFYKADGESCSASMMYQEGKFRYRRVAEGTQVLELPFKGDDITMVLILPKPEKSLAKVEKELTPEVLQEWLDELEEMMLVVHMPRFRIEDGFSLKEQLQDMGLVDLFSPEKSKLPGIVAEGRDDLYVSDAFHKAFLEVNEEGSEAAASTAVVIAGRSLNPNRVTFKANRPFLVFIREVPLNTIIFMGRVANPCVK
T2 sequence (P01009 25-418): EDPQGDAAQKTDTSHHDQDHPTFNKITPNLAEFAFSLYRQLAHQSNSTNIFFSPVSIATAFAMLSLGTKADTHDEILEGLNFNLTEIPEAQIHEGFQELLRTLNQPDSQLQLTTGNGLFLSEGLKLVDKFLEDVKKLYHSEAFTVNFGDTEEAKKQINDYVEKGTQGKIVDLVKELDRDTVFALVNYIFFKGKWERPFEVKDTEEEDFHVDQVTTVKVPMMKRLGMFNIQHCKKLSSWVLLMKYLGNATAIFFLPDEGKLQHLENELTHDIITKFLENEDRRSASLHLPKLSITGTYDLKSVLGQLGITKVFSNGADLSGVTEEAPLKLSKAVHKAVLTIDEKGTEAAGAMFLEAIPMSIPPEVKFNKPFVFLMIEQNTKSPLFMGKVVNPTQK

Binder	koff [1]	Kd [2]	koff [3]	koff [4]	Kd [5]	Kd [6]
Tissue plasminogen activator (enzyme) SYQVICRDEKTQMIYQQHQSWLRPVLRSNRVEYCWCNSGRAQCHSVPVKSCSEPRCFNGGTCQQALYFSDFVCQCPEGFAGKCCEIDTRATCYEDQGISYRGTWSTAESGAECTNWNSSALAQKPYSGRRPDAIRLGLGNHNYCRNPDRDSKPWCYVFKAGKYSSEFCSTPACSEGNSDCYFGNGSAYRGTHSLTESGASCLPWNSMILIGKVYTAQNPSAQALGLGKHNYCRNPDGDAKPWCHVLKNRRLTWEYCDVPSCSTCGLRQYSQPQFRIKGGLFADIASHPWQAAIFAKHRRSPGERFLCGGILISSCWILSAAHCFQERFPPHHLTVILGRTYRVVPGEEEQKFEVEKYIVHKEFDDDTYDNDIALLQLKSDSSRCAQESSVVRTVCLPPADLQLPDWTECELSGYGKHEALSPFYSERLKEAHVRLYPSSRCTSQHLLNRTVTDNMLCAGDTRSGGPQANLHDACQGDSGGPLVCLNDGRMTLVGIISWGLGCGQKDVPGVYTKVTNYLDWIRDNMRP	0.00787 s⁻¹	246 nM				
Active recombinant TMPRSS2 (transmembrane serine protease 2) (enzyme) not shown	0.00253 s⁻¹	9.5 nM	0.00377 s⁻¹	0.00324 s⁻¹	20.8 nM	17.9 nM
